Experimental data as given in article PMC7854983.
Where two headings read alike, the source gives them in different places.

Tests used:
YY1 (SILAC extract) = experiment: pull-down, SILAC MS
GST-tagged YY1(Δ231-290) = GST-tagged YY1(Δ231-290) (UniProt P25490); experiment: SEC
YY1 [1] = target: T1, YY1 (Homo sapiens, UniProt P25490 1-414); experiment: fluorescence anisotropy
YY1 del231-290 [2] = target: T2, YY1 del231-290 (Homo sapiens, UniProt P25490 1-414, del231-290); experiment: fluorescence anisotropy
YY1 [3] = target: T1, YY1; experiment: fluorescence anisotropy; remark: listed apart in the source
YY1 [4] = target: T1, YY1; experiment: fluorescence anisotropy; remark: listed apart in the source
YY1 del231-290 [5] = target: T2, YY1 del231-290; experiment: fluorescence anisotropy; remark: listed apart in the source
YY1 [6] = target: T1, YY1; experiment: fluorescence anisotropy; remark: listed apart in the source
GST-YY1 = GST-YY1 (Homo sapiens, UniProt P25490 1-414); experiment: fluorescence anisotropy

With cMYC G4 biotin probe the binding signal (SILAC ratio G4/M4) (YY1 (SILAC extract)) was 1.77.

With cKIT G4 biotin probe the binding signal (SILAC ratio G4/M4) (YY1 (SILAC extract)) was 1.92.

With “GST-tagged YY1(Δ231-290) (from UniProt P25490 1-414)” the stoichiometry N (GST-tagged YY1(Δ231-290)) was 2.

In the case of hTEL G4 biotin probe, the binding signal (SILAC ratio G4/M4) (YY1 (SILAC extract)) is reported as 2.02.

With TGAGGGTGGGGAGGGTGGGGA (structured_DNA) [cMYC G4] the Kd (YY1 [1]) was 26.3 ± 2.1 nM and the binding result (YY1 del231-290 [2]) was “binds”.

Molecule AGGGAGGGCGCTGGGAGGAGGG (structured_DNA) [cKIT G4] has a Kd (YY1 [1]) of 26.7 ± 2.2 nM.

AAAGGGTTAGTGTTAGTGTTAGGGAA (ssDNA) [hTEL M4] was tested, and the binding signal (YY1 [3]) was > 10 fold lower affinity than hTEL G4.

AGGGAGGGCTCTGTGAGGAGGG (ssDNA) [cKIT M4] was tested, and the binding signal (YY1 [4]) was > 10 fold lower affinity than cKIT G4.

With TGAGGGTGAGGAGTGTGGGGA (ssDNA) [cMYC M4] the binding signal (YY1 del231-290 [5]) was ~10 fold lower affinity than cMYC G4 and the binding signal (YY1 [6]) was > 10 fold lower affinity than cMYC G4.

Work on AAAGGGTTAGGGTTAGGGTTAGGGAA (structured_DNA) [hTEL G4] yielded a Kd (YY1 [1]) of 82 ± 5.3 nM.

B1: YY1 consensus motif duplex (dsDNA)
DNA 1: TCCACGGCAGCCGCCATCTTGGCT
DNA 2: AGCCAAGATGGCGGCTGCCGTGGA
Molecule B1 has a Kd (GST-YY1) of 11.6 ± 0.8 nM.
